In US20190359693A1:

B1: SD1074 (VHH)
VHH: EVQLVESGGGLVQAGGSLRLSCAASRNFDAIGAMGWYRQAPGKQRELVAEITSDGSTNYTDSVKGRFTISRDNALRTMYLQMNALEPEDTAVYYCKADISIYGLTNFPYWGQGTQVTVSS
B2: SD1072 (VHH)
VHH: EVQLVESGGGLVEAGGSLRLSCAVSGRTFSMYATGWFRQAPGKEREFVAAINSSGDKTTYADSVEGRFTISRDIGTVYLQMNNLNPEDTAVYYCAAARTLAVVTIPGGYEYWGQGTQVTVSS
B3: MD2310 (bispecific antibody)
chain: EVQLVESGGGLVQPGGSLRLSCAATGFTLENKAIGWFRQTPGSEREGVLCISKSGSWTYYTDSMRGRFTISRDNAENTVYLQMDSLKPEDTAVYYCATTTAGGGLCWDGTTFSRLASSWGQGTQVTVSSGGGGSGGGGSEVQLVESGGGLVQAGDSLRLSCAASGPTFGMSAMGWFRQAPGKEREFVAAISGLGNPNYSDDVKGRFTISRENGRNTVYLQMNSLKPEDTAVYYCAQRKVYHVQGGDRPQAYDYWGQGTQVTVSSGGGGSGGGGSEVQLVESGGGLVQAGDSLRISCAASGRTLSIYSMGWFRQAPGKEREFVATIGWNSGRTFYPDSLKGRFTISRDNARNTLYLQMNNLRPEDTAVYYCAAAKGPLRLSSQADYWGQGTQVTVSS
B4: MD2308 (bispecific antibody)
chain: EVQLVESGGGLVQAGDSLRISCAASGRTLSIYSMGWFRQAPGKEREFVATIGWNSGRTFYPDSLKGRFTISRDNARNTLYLQMNNLRPEDTAVYYCAAAKGPLRLSSQADYWGQGTQVTVSSGGGGSGGGGSEVQLVESGGGLVQPGGSLRLSCAATGFTLENKAIGWFRQTPGSEREGVLCISKSGSWTYYTDSMRGRFTISRDNAENTVYLQMDSLKPEDTAVYYCATTTAGGGLCWDGTTFSRLASSWGQGTQVTVSSGGGGSGGGGSEVQLVESGGGLVQAGDSLRLSCAASGPTFGMSAMGWFRQAPGKEREFVAAISGLGNPNYSDDVKGRFTISRENGRNTVYLQMNSLKPEDTAVYYCAQRKVYHVQGGDRPQAYDYWGQGTQVTVSS
B5: MD2307 (bispecific antibody)
chain: EVQLVESGGGLVQPGGSLRLSCAATGFTLENKAIGWFRQTPGSEREGVLCISKSGSWTYYTDSMRGRFTISRDNAENTVYLQMDSLKPEDTAVYYCATTTAGGGLCWDGTTFSRLASSWGQGTQVTVSSGGGGSGGGGSEVQLVESGGGLVQAGDSLRISCAASGRTLSIYSMGWFRQAPGKEREFVATIGWNSGRTFYPDSLKGRFTISRDNARNTLYLQMNNLRPEDTAVYYCAAAKGPLRLSSQADYWGQGTQVTVSSGGGGSGGGGSEVQLVESGGGLVQAGDSLRLSCAASGPTFGMSAMGWFRQAPGKEREFVAAISGLGNPNYSDDVKGRFTISRENGRNTVYLQMNSLKPEDTAVYYCAQRKVYHVQGGDRPQAYDYWGQGTQVTVSS
B6: MD2309 (bispecific antibody)
chain: EVQLVESGGGLVQAGDSLRISCAASGRTLSIYSMGWFRQAPGKEREFVATIGWNSGRTFYPDSLKGRFTISRDNARNTLYLQMNNLRPEDTAVYYCAAAKGPLRLSSQADYWGQGTQVTVSSGGGGSGGGGSEVQLVESGGGLVQAGDSLRLSCAASGPTFGMSAMGWFRQAPGKEREFVAAISGLGNPNYSDDVKGRFTISRENGRNTVYLQMNSLKPEDTAVYYCAQRKVYHVQGGDRPQAYDYWGQGTQVTVSSGGGGSGGGGSEVQLVESGGGLVQPGGSLRLSCAATGFTLENKAIGWFRQTPGSEREGVLCISKSGSWTYYTDSMRGRFTISRDNAENTVYLQMDSLKPEDTAVYYCATTTAGGGLCWDGTTFSRLASSWGQGTQVTVSS

What was measured:
Experiment in all cases: cell-based or functional assay
[1] = target: HA of H1N1 A/New Caledonia/20/1999 (influenza A virus)
[2] = target: HA of H3N2 A/Brisbane/10/2007 (influenza A virus)
[3] = target: HA of H5N1 A/Vietnam/1194/04 (influenza A virus)
[4] = target: HA of H7N3 A/NIBRG/60 (A/mallard/NL/12/00) (influenza A virus)
[5] = target: hemagglutinin (HA) of influenza virus H7N3 A/NIBRG/60 (A/mallard/Netherlands/12/00) (influenza A virus)
[6] = target: hemagglutinin (HA) of influenza virus H3N2 A/Brisbane/10/07 (influenza A virus)
[7] = target: hemagglutinin (HA) of influenza virus H5N1 A/Vietnam/1194/04 (influenza A virus)

Binder	VNA titer [1] [nM]	VNA titer [2] [nM]	VNA titer [3] [nM]	VNA titer [4] [nM]	average neutralization titer [5] [nM]	average neutralization titer [6] [nM]	average neutralization titer [7] [nM]
B1	113	> 1000	638	> 1000			
B2	78.5	> 1000	444	> 1000			
B3					30.4	25.5	21.6
B4					12.8	15.3	21.6
B5					18.1	30.4	21.6
B6					9.1	12.8	12.8
